The values below come from patent US20080206254A1 (LIFE SCIENCES RESEARCH PARTNERS VZW, published 2008).

Where a chain is given by its changes, count along the chain named.

For experiment [1], the target named is human Factor VIII (FVIII) (human) (UniProt P00451). Briefly: SPR (BIAcore), BOIIB2 immobilised on a CM5 chip, FVIII in HBS as analyte.
The target in experiment [2] is T1, A2 domain residues 379-546 of FVIII with mutation P492A (human, UniProt P00451 398-565, 35S-methionine labelled).
T1 construct: Read as one of four single mutants; see the note of m4; not shown: cmyc (9E10) tag
T1 sequence: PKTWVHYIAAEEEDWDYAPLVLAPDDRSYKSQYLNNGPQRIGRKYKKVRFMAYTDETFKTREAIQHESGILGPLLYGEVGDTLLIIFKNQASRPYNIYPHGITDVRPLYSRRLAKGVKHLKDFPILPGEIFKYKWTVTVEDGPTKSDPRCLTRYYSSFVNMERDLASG
The experiment can be described thus: immunoprecipitation of 35S-labelled polypeptide on BOIIB2-Protein A Sepharose. Here is the method:
(§1) For fragments of FVIII of less than 15 amino acids a tag sequence was added including ubiquitin and/or T7 for recognition by specific anti-tag antibodies, together with a complementary sequence of cysteines for S labeling. Polypeptide encoding FVIII fragments were produced in TNT coupled Reticulocyte Lysate Systems (Promega) according to manufacturer's instructions. Immunoprecipitation of transcribed genes was carried out as follows. Dilutions of samples containing specific antibodies were mixed to 40 μl of protein A Sepharose (Pharmacia) in 500 μl of an appropriate buffer and the mixture gently rocked for 1 hour at 4° C. Unbound antibodies are eliminated by a series of centrifugation and washings. The complex of antibody-protein A Sepharose is resuspended in 300 μl of buffer supplemented by 3 μl of in-vitro L-(³⁵S) methionine-labeled FVIII polypeptides for an incubation at 4° C. for 2 hours. Bound antigen/antibody complexes are eluted from the beads by boiling for 3 minutes in 30 μl of denaturing sample buffer and the radioactivity counted. A second aliquot is analyzed by SDS-PAGE and visualized by autoradiography. […] This system includes a combined transcription-translation provided by rabbit reticulocytes. […] Polypeptides are radiolabeled by addition of ³⁵S-methionine in the reaction mixture. BOIIB2 antibody is incubated with a Protein-A Sepharose, washed and resuspended before addition of one of the radiolabeled polypeptides. The suspension is incubated for 90 minutes at room temperature, washed and the labeled polypeptide eluted from Sepharose beads by addition of a sodium-dodecylsulfate containing buffer.

The target in experiment [3] is T2, A2 domain residues 379-546 of FVIII with mutation R484A (human, UniProt P00451 398-565, 35S-methionine labelled).
T2 construct: the text lists R484A; Y487A; not shown: cmyc (9E10) tag
T2 sequence: T1 sequence with R106A, A114P
Described as above. As to the method: as §1

The target of experiment [4] is T3, A2 domain residues 379-546 of FVIII with mutation R489A (human, UniProt P00451 398-565, 35S-methionine labelled).
T3 construct: Read as one of four single mutants; see the note of m4; not shown: cmyc (9E10) tag
T3 sequence: T1 sequence with R111A, A114P
Described as above. As to the method: as §1

The target in experiment [5] is T4, A2 domain residues 379-546 of FVIII with mutation Y487A (human, UniProt P00451 398-565, 35S-methionine labelled).
T4 construct: Read as one of four single mutants; see the note of m4; not shown: cmyc (9E10) tag
T4 sequence: T1 sequence with Y109A, A114P
Described as above. Here is the method: as §1

Experiment [6] deals with human Factor VIII (FVIII) (human) (UniProt P00451). The experiment can be described thus: cell-based or functional assay.

Sequence of human Factor VIII (FVIII) (human) (P00451 20-2351): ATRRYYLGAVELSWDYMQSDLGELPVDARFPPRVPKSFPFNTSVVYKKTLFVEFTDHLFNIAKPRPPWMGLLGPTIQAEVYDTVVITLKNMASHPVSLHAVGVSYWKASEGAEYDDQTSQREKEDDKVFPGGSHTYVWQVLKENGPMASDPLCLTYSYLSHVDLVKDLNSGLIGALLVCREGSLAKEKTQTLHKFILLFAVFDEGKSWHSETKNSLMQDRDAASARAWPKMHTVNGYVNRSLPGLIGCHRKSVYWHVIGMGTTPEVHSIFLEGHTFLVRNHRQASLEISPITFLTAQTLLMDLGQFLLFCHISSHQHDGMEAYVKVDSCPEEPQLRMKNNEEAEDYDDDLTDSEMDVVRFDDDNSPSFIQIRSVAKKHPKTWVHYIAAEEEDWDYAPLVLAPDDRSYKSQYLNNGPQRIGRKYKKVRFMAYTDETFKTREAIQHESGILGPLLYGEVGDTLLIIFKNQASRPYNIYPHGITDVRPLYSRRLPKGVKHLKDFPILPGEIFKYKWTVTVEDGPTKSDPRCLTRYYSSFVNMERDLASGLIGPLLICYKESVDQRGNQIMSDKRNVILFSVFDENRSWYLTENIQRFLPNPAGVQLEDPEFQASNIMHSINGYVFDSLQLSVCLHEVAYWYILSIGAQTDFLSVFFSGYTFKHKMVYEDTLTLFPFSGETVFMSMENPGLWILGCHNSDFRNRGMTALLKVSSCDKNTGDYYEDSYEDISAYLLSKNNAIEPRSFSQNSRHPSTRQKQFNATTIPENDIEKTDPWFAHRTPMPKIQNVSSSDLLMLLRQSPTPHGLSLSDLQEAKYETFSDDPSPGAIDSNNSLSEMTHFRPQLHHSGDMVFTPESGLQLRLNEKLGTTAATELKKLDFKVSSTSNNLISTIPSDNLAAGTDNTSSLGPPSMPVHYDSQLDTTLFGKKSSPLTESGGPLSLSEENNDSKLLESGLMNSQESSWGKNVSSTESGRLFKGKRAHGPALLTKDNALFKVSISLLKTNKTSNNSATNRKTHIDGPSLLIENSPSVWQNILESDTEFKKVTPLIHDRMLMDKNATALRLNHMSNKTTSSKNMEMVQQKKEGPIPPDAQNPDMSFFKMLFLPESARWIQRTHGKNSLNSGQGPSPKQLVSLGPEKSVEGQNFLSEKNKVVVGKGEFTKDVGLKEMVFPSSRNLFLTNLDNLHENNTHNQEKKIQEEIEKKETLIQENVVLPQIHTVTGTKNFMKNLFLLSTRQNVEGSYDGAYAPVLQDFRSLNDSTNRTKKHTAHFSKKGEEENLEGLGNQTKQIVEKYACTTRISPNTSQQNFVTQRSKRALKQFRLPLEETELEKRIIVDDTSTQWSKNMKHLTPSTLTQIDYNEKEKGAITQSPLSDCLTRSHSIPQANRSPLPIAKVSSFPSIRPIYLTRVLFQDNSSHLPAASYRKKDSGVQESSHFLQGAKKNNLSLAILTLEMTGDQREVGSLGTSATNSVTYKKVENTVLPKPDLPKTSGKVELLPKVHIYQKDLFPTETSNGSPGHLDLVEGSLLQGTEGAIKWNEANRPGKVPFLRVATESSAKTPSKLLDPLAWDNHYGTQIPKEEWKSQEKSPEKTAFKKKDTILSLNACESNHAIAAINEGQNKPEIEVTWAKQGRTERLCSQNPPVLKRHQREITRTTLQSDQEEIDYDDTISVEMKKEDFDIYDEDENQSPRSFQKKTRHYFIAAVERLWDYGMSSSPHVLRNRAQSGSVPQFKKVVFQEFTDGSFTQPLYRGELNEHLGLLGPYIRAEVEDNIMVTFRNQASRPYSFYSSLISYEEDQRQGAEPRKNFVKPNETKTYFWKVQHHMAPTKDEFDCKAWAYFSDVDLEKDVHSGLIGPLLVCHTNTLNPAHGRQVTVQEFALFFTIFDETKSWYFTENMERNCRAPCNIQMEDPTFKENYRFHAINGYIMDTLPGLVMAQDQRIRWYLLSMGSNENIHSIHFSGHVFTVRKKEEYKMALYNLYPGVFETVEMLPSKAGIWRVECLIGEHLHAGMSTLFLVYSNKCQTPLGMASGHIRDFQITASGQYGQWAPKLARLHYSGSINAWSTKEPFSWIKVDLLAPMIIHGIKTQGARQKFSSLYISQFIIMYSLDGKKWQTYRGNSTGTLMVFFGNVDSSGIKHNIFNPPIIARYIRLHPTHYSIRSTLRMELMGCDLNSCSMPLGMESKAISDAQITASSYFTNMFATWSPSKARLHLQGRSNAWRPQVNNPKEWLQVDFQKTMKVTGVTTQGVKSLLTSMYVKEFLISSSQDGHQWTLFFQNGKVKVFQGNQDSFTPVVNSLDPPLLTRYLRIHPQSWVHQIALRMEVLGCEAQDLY

B1: human monoclonal antibody BOIIB2, produced by the cell line deposited under accession number LMBP 6422CB at the BCCM (antibody, V domains shown)
VH: QVQLQESGPGLVKPSETLSLTCTVSGDSISDYYWSWIRQPPGKGLEWIGYFFYSGGSNYNPSLKSRVTMSVDTSKNQFSLKLGSVTAADTAVYYCARSQLRYYLDVWGQGTTVTVSS
VL: EIVLTQSPGTLSLSPGERATLSCRASQSVDSNYLAWYQQKPGQAPRVVIYGASNRATGIPDRFSGSGSGTEFTLTISRLDPEDFAVYYCQQYGSFFGQGTRLEIK
notes: VH4 (DP-71)/JH6c, VkappaIII/Jkappa5; also called BIIIB2
By koff is commonly meant the rate constant with which the complex falls apart. A low value points to slow dissociation. With B1, the koff in experiment [1] came out at 1e-08 s⁻¹. Also, the binding result in experiment [2], in experiment [3], in experiment [4] and in experiment [5] was “no binding” in each case. In experiment [6], the Percentage of inhibition of FVIII in a chromogenic assay (thrombin-activated FVIII as cofactor of factor IXa in the conversion of factor X to factor Xa) was 99%.
